This is an account of results in patent publication US20100240040A1 (INSTITUT PASTEUR, published 2010).

Where no end group is shown, it is not given here. Bodipy = not defined here

Data set [1] addresses NEMO (endogenous, in 70Z/3-C3 cells) (UniProt O88522 1-412, limits assumed). Nature of the data set: cell-based or functional assay.
The target in a further data set is T1, spCC2-LZ (murine).
T1 construct: also called MOD; minimal oligomerization domain of NEMO
T1 chain: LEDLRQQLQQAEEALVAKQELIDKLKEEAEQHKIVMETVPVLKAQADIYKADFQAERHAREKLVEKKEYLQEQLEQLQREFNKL
Nature of the data set: fluorescence anisotropy, 10 µM labelled peptide titrated with spCC2-LZ. The source says: The concentration of spCC2-LZ was determining by amino acid analysis (Vinolo et al; 2006).
A general note: Fluorescence polarisation rises when a labelled molecule tumbles more slowly, as on binding a larger partner.

Data set [2] deals with the molecule itself. Nature of the data set: circular dichroism and gel filtration (data not shown).

Sequence of NEMO (endogenous, in 70Z/3-C3 cells) (O88522 whole entry): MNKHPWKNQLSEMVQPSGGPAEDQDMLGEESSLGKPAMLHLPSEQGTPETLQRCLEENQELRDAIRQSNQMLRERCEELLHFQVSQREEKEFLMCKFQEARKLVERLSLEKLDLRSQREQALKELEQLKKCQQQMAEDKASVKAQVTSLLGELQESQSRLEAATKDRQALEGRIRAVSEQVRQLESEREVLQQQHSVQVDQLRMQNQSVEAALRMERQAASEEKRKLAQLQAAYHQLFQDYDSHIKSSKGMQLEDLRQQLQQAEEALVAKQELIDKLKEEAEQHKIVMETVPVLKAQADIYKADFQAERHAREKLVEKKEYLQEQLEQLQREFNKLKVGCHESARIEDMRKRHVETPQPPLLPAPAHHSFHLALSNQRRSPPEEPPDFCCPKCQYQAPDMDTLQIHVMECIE

B1: BA-DR NLM (peptide)
peptide: C(Bodipy)RQIKIWFQNRRMKWKKLKAQADIYKARFQAERHAREK
modifications: reading uncertain
notes: also called BA-NLM-DR; DR NLM fused to its N-terminus with the antennapedia peptide
What is called Kd is the constant that tells how readily two partners part at equilibrium. Lower therefore signals a tighter complex. For B1, in data set [1], the “IC50 of NF-κB activity (β-galactosidase reporter in 70Z/3-C3 cells after PMA, IL-1 or LPS)” value turned out to be 0.9 µM. This molecule also yielded a Kd with spCC2-LZ of 17 µM.

B2: BR7-DR NLM (peptide)
peptide: C(Bodipy)RRRRRRRLKAQADIYKARFQAERHAREK
modifications: reading uncertain
notes: also called DR NLM fused to the poly R7 peptide
B2 yielded a Kd with spCC2-LZ of 21 µM.

B3: DR NLM (peptide)
peptide: LKAQADIYKARFQAERHAREK
notes: also called tag-free DR NLM; NLM-DR
Turning to B3, the binding result in data set [2] is “no binding (tested: up to 100 µM)”.

B4: NLM (peptide)
peptide: LKAQADIYKADFQAERHAREK
notes: also called tag-free NLM; NLM peptide of NEMO
For the molecule B4, the binding result in data set [2] is “no binding (tested: up to 100 µM)”.
